Assay results: article PMC8886539
Several values for one entry are separate records, joined by “and”; a condition that tells them apart may be missing. Equal entries are not always repeated.

Experiments:
[1] = molecular target: DNA polymerase α-primase complex (human) (UniProt P09884)
[2] = molecular target: DNA polymerase α-primase complex (human) (UniProt P09884); remark: listed apart in the source
[3] = molecular target: full-length SV40 T antigen Tag_(1-708) (simian virus 40) (UniProt P03070); assay: atomic force microscopy (volume analysis); 500 nM protein (or 250 nM each of M1 and M2) with gapped DNA substrate (48 nt ssDNA at the centre of ~500 bp, 3-5 nM) in 25 mM HEPES-NaOH pH 7.5, 25 mM sodium acetate, 10 mM magnesium acetate, 1 mM ATP, 1 h at room temperature; cross-linked with 0.1% glutaraldehyde; volumes of complexes on the ssDNA stretch
[4] = molecular target: wt Tag_(131-627) (simian virus 40); assay: SEC; Superdex 200 16/600 column; proteins in solution; data not shown
[5] = molecular target: wt Tag_(131-627) (simian virus 40); assay: atomic force microscopy (volume analysis); 500 nM protein (or 250 nM each of M1 and M2) with gapped DNA substrate (48 nt ssDNA at the centre of ~500 bp, 3-5 nM) in 25 mM HEPES-NaOH pH 7.5, 25 mM sodium acetate, 10 mM magnesium acetate, 1 mM ATP, 1 h at room temperature; cross-linked with 0.1% glutaraldehyde; volumes of complexes on the ssDNA stretch

Sequence of UniProt P09884 (P09884 whole entry, chain 1 of 4): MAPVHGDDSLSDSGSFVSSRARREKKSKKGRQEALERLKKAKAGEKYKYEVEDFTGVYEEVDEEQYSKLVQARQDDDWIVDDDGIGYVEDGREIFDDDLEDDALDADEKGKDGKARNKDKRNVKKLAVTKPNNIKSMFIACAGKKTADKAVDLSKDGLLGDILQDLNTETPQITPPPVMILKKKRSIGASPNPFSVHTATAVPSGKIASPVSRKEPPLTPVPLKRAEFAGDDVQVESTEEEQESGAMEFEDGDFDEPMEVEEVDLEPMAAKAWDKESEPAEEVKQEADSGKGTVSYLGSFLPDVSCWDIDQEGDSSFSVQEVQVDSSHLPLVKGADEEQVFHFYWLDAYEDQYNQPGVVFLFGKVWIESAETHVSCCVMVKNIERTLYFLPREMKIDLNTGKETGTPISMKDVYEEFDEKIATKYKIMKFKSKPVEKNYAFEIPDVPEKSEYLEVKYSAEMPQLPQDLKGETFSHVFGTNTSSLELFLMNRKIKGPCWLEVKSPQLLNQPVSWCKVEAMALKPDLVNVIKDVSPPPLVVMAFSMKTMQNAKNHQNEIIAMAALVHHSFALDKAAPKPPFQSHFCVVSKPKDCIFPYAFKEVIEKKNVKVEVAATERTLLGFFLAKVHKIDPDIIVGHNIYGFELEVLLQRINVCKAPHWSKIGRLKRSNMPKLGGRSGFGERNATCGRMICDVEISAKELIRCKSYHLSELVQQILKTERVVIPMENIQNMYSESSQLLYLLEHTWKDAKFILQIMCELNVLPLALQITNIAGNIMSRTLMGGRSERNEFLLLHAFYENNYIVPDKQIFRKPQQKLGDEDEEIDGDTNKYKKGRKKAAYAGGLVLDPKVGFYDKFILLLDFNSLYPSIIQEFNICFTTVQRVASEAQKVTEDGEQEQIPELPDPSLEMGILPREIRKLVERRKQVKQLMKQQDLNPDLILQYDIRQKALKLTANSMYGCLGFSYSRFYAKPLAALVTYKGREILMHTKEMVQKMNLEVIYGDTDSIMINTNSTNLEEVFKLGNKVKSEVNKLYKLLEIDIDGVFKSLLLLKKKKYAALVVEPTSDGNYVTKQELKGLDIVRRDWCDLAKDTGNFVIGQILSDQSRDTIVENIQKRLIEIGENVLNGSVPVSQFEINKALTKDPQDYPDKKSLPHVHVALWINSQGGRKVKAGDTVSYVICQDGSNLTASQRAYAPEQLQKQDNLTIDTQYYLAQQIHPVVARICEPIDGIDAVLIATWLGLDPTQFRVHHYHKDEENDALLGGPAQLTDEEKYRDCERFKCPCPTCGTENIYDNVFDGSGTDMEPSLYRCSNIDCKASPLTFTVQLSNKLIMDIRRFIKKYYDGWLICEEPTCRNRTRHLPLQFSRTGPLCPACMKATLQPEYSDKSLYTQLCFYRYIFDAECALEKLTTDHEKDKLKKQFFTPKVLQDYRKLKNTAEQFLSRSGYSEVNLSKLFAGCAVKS
Sequence of UniProt P09884 (Q14181 whole entry, chain 2 of 4, further chain): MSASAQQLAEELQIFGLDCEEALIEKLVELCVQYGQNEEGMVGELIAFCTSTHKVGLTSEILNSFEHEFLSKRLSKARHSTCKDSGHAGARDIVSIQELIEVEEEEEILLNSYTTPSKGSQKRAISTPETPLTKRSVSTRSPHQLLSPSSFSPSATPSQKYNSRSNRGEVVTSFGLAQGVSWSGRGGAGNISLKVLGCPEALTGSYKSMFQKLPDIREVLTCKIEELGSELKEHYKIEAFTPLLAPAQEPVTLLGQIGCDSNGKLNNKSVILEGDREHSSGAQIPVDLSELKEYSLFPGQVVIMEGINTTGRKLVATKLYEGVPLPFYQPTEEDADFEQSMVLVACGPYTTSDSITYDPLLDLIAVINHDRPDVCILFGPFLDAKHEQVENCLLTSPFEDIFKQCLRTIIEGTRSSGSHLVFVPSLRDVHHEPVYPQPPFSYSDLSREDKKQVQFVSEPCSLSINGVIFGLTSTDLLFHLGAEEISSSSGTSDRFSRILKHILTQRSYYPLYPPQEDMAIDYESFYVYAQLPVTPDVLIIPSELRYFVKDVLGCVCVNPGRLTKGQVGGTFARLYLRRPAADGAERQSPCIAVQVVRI
Sequence of UniProt P09884 (P49643 whole entry, chain 3 of 4, further chain): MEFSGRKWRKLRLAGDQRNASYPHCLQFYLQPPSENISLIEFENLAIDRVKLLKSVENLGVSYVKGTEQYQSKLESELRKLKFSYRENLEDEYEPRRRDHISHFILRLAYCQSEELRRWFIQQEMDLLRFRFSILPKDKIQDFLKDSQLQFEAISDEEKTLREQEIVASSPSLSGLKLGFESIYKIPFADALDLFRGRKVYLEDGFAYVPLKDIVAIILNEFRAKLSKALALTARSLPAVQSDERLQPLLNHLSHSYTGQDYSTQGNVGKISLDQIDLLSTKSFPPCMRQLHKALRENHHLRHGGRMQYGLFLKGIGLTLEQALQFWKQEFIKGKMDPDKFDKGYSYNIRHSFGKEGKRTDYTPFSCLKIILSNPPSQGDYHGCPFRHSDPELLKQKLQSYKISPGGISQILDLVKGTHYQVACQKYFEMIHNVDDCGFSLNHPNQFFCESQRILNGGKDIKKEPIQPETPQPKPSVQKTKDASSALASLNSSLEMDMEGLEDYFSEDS
Sequence of UniProt P09884 (P49642 whole entry, chain 4 of 4, further chain): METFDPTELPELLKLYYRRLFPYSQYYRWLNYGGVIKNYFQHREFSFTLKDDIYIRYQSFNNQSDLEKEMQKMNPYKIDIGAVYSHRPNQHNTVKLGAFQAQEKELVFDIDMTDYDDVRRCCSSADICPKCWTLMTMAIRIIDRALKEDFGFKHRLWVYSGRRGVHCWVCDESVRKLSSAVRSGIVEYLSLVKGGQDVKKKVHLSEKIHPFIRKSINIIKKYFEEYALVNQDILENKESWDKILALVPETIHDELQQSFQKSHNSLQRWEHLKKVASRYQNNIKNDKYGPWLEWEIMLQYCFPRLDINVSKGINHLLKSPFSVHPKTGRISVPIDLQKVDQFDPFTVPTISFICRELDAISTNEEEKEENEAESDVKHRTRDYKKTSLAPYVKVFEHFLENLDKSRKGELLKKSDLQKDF

Substance: Tag_(131-627)(L286D/R567E) (domain or fragment)
- primase-initiated DNA synthesis (dNMP incorporation) by Pol-prim on RPA-bound ssDNA (0.5 µg RPA), 0.3 and 0.6 µg Tag variant, stimulation against RPA without Tag [1]: 10.4 fold
- primase-initiated DNA synthesis (dNMP incorporation) by Pol-prim on ΦΧ174 ssDNA, 0.3 and 0.6 µg Tag variant, stimulation against Pol-prim alone [2]: 4 fold

Substance: Tag_(131-627)(V350E/P417D) (domain or fragment)
- primase-initiated DNA synthesis (dNMP incorporation) by Pol-prim on ΦΧ174 ssDNA, 0.3 and 0.6 µg Tag variant, reduction against Pol-prim alone [2]: 65 % reduction

Substance: full-length SV40 T antigen Tag_(1-708) (from UniProt P03070 1-708) (natural protein)
- primase-initiated DNA synthesis (dNMP incorporation) by Pol-prim on RPA-bound ssDNA (0.5 µg RPA), 0.3 and 0.6 µg Tag, stimulation against RPA without Tag [1]: 11.5 fold
- stoichiometry N [3]: 2

Substance: wt Tag_(131-627) (domain or fragment)
- primase-initiated DNA synthesis (dNMP incorporation) by Pol-prim on ΦΧ174 ssDNA, 0.3 and 0.6 µg Tag variant, inhibition against Pol-prim alone [2]: 96 % inhibition
- stoichiometry N [4]: 6
- stoichiometry N [5]: 6 and 12
